As usually defined, the stoichiometry N is the number of molecules, sites or subunits per partner or assembly.

Where “and” joins values, the source holds several entries; their conditions need not be identical. Equal entries are not always repeated.

The data set concerns the molecule itself. Kind of data set: PFO-PAGE.

B1: SARS-CoV M protein endodomain, residues 107-221 (M_(107-221)) (domain or fragment)
chain: SMWSFNPETNILLNVPLRGTIVTRPLMESELVIGAVIIRGHLRMAGHSLGRCDIKDLPKEITVATSRTLSYYKLGASQRVGTDSGFAAYNRYRIGNYKLNTDHAGSNDNIALLVQ
For B1, the “stoichiometry N” value was 2 and 4 and 6.

The values above are taken from paper PMC4486061 (Journal of Structural Biology, 2010).
